Test [1] concerns DLD-1 Lyn KO Flp-In T-REx cells. Description: Direct ubiquitin blot of Lyn-GFP immunoprecipitates. As to conditions: anti-GFP IP, anti-Ub blot, n = 3. In kind it is cell-based, human. How it is done:
Fig. 6 N-terminal glycine mutation abolishes DCAF10-dependent stability and ubiquitination. a DLD-1 Flp-In T-REx cells and Lyn KO cells expressing Lyn^WT-GFP, Lyn^G2A-GFP, or Lyn^G2P-GFP were induced for 24 h with 100 ng/mL doxycycline. Cells were treated with NMT1/2 siRNA, DCAF10 siRNA, or both (or left untreated) for 72 h. Representative WBs are shown. Filled circles represent siRNA treatment, empty circles untreated. b WB quantifications of Lyn levels normalized to vinculin. Purple: untreated with NMT1/2 siRNA; blue: treated with NMT1/2 siRNA. Mean ± s.d. with individual data points are shown (n = 3 independent biological replicates). c Schematic of ubiquitination experiments. Created in BioRender. […] Lysates have been treated with NMT1/2 RNAi for 72 h. i Quantification of in vitro ubiquitination assays. Mean ± s.d. with individual data points are shown (n = 3 independent ubiquitination assays). Volcano plots of Lyn-GFP^WT binding partners: j NMT1/2 siRNA ± doxycycline (Dox); k Control ± doxycycline; l NMT1/2 siRNA vs. control both with doxycycline. The −log10 adjusted p-value (two-sided Student’s t test with permutation-based multiple-testing correction; y-axis) is plotted against the log2 fold change (x-axis). […]
We next assessed the role of the Lyn Nt-residue for ubiquitination by performing two complementary experimental set-ups (Fig. 6c). […]

Another test concerns CUL4A-DDB1-DCAF10. The test can be described thus: In vitro ubiquitination of Lyn-GFP variants by CUL4A-DDB1-DCAF10. To be noted: relative to Lyn^WT-GFP, NMT1/2 siRNA 72 h, mean ± s.d., n = 3. In kind it is biochemical, human. The text has this: Lyn^WT-GFP was ubiquitinated by the WT E3 complex in both conditions; however, unlike in vitro ubiquitination with endogenous Lyn (Fig. 5c, d), ubiquitination increased ~6-fold under NMT1/2 siRNA conditions. This is consistent with DCAF10 being limiting and overexpressed Lyn-GFP, accumulating an acetylated fraction available for DCAF10 in vitro. Then, we performed IPs for all Nt variants under NMT1/2 siRNA conditions (Fig. 6d, h–i). […] In vitro ubiquitination assays using untreated cell lysates led to similar results (Supplementary Fig. 7h, i).
Reactions contained E1, UBCH5B (E2), ubiquitin, Mg-ATP in ligation buffer and were incubated with bead-bound substrates, followed by washing and immunoblot detection of ubiquitinated species (anti-ubiquitin), with loading controls (anti-Lyn, -Fyn, -Src or -GFP) (n = 3 independent enzymatic assays). Complete reagent lists, complex preparation, substrate IP conditions, wash buffers, and gel/blot parameters are provided in the Supplementary Methods and Tables.
357 (v/v) glycerol, 2 mM TCEP, supplemented with Protease Inhibitor Cocktail), and lysed
358 by sonication. Lysates were cleared by centrifugation at 28,000 rpm for 45 min at 4 °C […]
382 EDTA, and loaded on a gradient gel (4–15%). Ubiquitination of substrates was assessed
383 by WB using an anti-ubiquitin antibody. Equal substrate loading was evaluated by anti- […]

Where a chain is given by its changes, count along the chain named. Names and notes keep the numbering of the source.

B1: Lyn^G2A-GFP: Nt-mutant (G2A) Lyn-GFP (protein, UniProt P07948 2-512, looked up, variant G2A)
Tyrosine-protein kinase Lyn: ACIKSKGKDSLSDDGVDLKTQPVRNTERTIYVRDPTSNKQQRPVPESQLLPGQRFQTKDPEEQGDIVVALYPYDGIHPDDLSFKKGEKMKVLEEHGEWWKAKSLLTKKEGFIPSNYVAKLNTLETEEWFFKDITRKDAERQLLAPGNSAGAFLIRESETLKGSFSLSVRDFDPVHGDVIKHYKIRSLDNGGYYISPRITFPCISDMIKHYQKQADGLCRRLEKACISPKPQKPWDKDAWEIPRESIKLVKRLGAGQFGEVWMGYYNNSTKVAVKTLKPGTMSVQAFLEEANLMKTLQHDKLVRLYAVVTREEPIYIITEYMAKGSLLDFLKSDEGGKVLLPKLIDFSAQIAEGMAYIERKNYIHRDLRAANVLVSESLMCKIADFGLARVIEDNEYTAREGAKFPIKWTAPEAINFGCFTIKSDVWSFGILLYEIVTYGKIPYPGRTNADVMTALSQGYRMPRVENCPDELYDIMKMCWKEKAEERPTFDYLQSVLDDFYTATEGQYQQQP
modifications: GFP fusion
In the case of B1, in test [1], the “Ubiquitination in cells (in words)” value is reported as “no detectable ubiquitination”. For the same molecule, the “Reduction of ubiquitination by the WT complex” value with CUL4A-DDB1-DCAF10 was ~ 82 ± 13%.

B2: Lyn^G2P-GFP: Nt-mutant (G2P) Lyn-GFP (protein, UniProt P07948 2-512, looked up, variant G2P)
Tyrosine-protein kinase Lyn: B1 Tyrosine-protein kinase Lyn with A1P
modifications: C-terminal GFP fusion
On to B2, for which, in test [1], the “Ubiquitination in cells (in words)” value was “no detectable ubiquitination”. Also, the “Reduction of ubiquitination by the WT complex” value in the test with CUL4A-DDB1-DCAF10 was ~ 84 ± 10%.

These data come from article PMC12775124, “CUL4A-DDB1-DCAF10 is an N-recognin for N-terminally acetylated Src kinases” (Nature Communications, 2026).
